Data published in the Immune Epitope Database (IEDB).

Columns and labels:
HLA-B*08:01 = experiment: IEDB peptide-MHC binding, purified MHC/competitive/fluorescence; ≥ and ≤ were set here for values at or beyond the usual limits of such assays
HLA-A*01:01 [1] = experiment: IEDB peptide-MHC binding, purified MHC/competitive/fluorescence; filed as Kd, often an IC50 or EC50 that approximates it; ≥ and ≤ were set here for values at or beyond the usual limits of such assays; details: source organism: Yersinia pestis Nepal516
HLA-A*03:01 [2] = experiment: as above
HLA-B*35:01 = experiment: as above
HLA-B*58:01 [3] = experiment: as above; details: source organism: Yersinia pestis Nepal516
HLA-A*03:01 [4] = experiment: IEDB peptide-MHC binding, purified MHC/competitive/fluorescence; ≥ and ≤ were set here for values at or beyond the usual limits of such assays; details: source organism: Vaccinia virus Copenhagen
HLA-A*11:01 [5] = experiment: as above; details: source organism: Vaccinia virus Copenhagen
HLA-A*24:02 = experiment: as above; details: source organism: Vaccinia virus Copenhagen
HLA-A*01:01 [6] = experiment: IEDB peptide-MHC binding, purified MHC/direct/fluorescence; filed as Kd, often an IC50 or EC50 that approximates it; ≥ and ≤ were set here for values at or beyond the usual limits of such assays; details: source organism: Camelpox virus M-96
HLA-A*02:01 [7] = experiment: as above; details: source organism: Camelpox virus M-96
HLA-A*11:01 [8] = experiment: as above; details: source organism: Variola virus
HLA-A*26:01 [9] = experiment: as above; details: source organism: Camelpox virus M-96
HLA-A*31:01 = experiment: as above; details: source organism: Camelpox virus M-96
HLA-A*69:01 = experiment: as above; details: source organism: Camelpox virus M-96
HLA-B*08:02 = experiment: as above; details: source organism: Variola virus
HLA-B*27:05 = experiment: as above; details: source organism: Camelpox virus M-96
HLA-B*40:01 = experiment: as above; details: source organism: Camelpox virus M-96
HLA-B*48:01 = experiment: as above; details: source organism: Camelpox virus M-96
HLA-B*58:01 [10] = experiment: as above; details: source organism: Variola virus
HLA-A*30:01 = experiment: IEDB peptide-MHC binding, purified MHC/competitive/fluorescence; filed as Kd, often an IC50 or EC50 that approximates it; ≥ and ≤ were set here for values at or beyond the usual limits of such assays; details: source organism: Vaccinia virus WR
HLA-B*15:01 = experiment: as above
HLA-B*15:17 = experiment: as above
HLA-B*57:01 = experiment: as above
HLA-A*32:01 = experiment: IEDB peptide-MHC binding, purified MHC/competitive/radioactivity; filed as Kd, often an IC50 or EC50 that approximates it; ≥ and ≤ were set here for values at or beyond the usual limits of such assays; details: source organism: Vaccinia virus WR
HLA-A*02:01 [11] = experiment: IEDB peptide-MHC binding, purified MHC/competitive/fluorescence; filed as Kd, often an IC50 or EC50 that approximates it; ≥ and ≤ were set here for values at or beyond the usual limits of such assays; details: source organism: Giardia lamblia ATCC 50803
HLA-A*02:03 = experiment: as above; details: source organism: Giardia lamblia ATCC 50803
HLA-A*02:16 = experiment: as above; details: source organism: Giardia lamblia ATCC 50803
HLA-A*02:19 = experiment: as above; details: source organism: Giardia lamblia ATCC 50803
HLA-A*23:01 = experiment: as above; details: source organism: Giardia lamblia ATCC 50803
HLA-A*24:03 = experiment: as above; details: source organism: Giardia lamblia ATCC 50803
HLA-A*26:01 [12] = experiment: as above; details: source organism: Giardia lamblia ATCC 50803
HLA-A*29:02 = experiment: as above; details: source organism: Giardia lamblia ATCC 50803
HLA-B*18:01 = experiment: as above; details: source organism: Giardia lamblia ATCC 50803
HLA-B*27:03 = experiment: as above; details: source organism: Giardia lamblia ATCC 50803
HLA-B*39:01 = experiment: as above; details: source organism: Giardia lamblia ATCC 50803
HLA-B*46:01 = experiment: as above; details: source organism: Giardia lamblia ATCC 50803
HLA-B*51:01 = experiment: as above; details: source organism: Giardia lamblia ATCC 50803
[13] = source organism: Vaccinia virus WR
[14] = source organism: Yersinia pestis Nepal516
[15] = source organism: Klebsiella pneumoniae subsp. pneumoniae NTUH-K2044
[16] = source organism: Giardia lamblia ATCC 50803

Sequence: DIKASNIVL
- IC50 (HLA-B*08:01; [13]): ≥ 266 µM

Sequence: FTIRDVLAY
- Kd (HLA-A*01:01 [1]): 0.0025 µM
- Kd (HLA-A*03:01 [2]; [14]): ≥ 20 µM
- Kd (HLA-B*35:01; [14]): 0.0013 µM
- Kd (HLA-B*58:01 [3]): 0.0041 µM

Sequence: FTWSGDVRY
- Kd (HLA-A*01:01 [1]): 0.132 µM
- Kd (HLA-B*35:01; [14]): ≤ 0.0001 µM
- Kd (HLA-B*58:01 [3]): 0.404 µM

Sequence: ITFALKKLI
- IC50 (HLA-A*03:01 [4]): 60.8 µM
- IC50 (HLA-A*11:01 [5]): 57.7 µM
- IC50 (HLA-A*24:02): 2.3 µM
- IC50 (HLA-B*08:01; source organism: Vaccinia virus Copenhagen): ≥ 210 µM

Sequence: ITMVNSLTY
- Kd (HLA-A*01:01 [6]): 0.0371 µM
- Kd (HLA-A*02:01 [7]): ≥ 20 µM
- Kd (HLA-A*11:01 [8]): 0.012 µM
- Kd (HLA-A*26:01 [9]): 0.258 µM
- Kd (HLA-A*31:01): ≥ 20 µM
- Kd (HLA-A*69:01): ≥ 20 µM
- Kd (HLA-B*08:02): ≥ 20 µM
- Kd (HLA-B*27:05): ≥ 20 µM
- Kd (HLA-B*40:01): ≥ 20 µM
- Kd (HLA-B*48:01): ≥ 20 µM
- Kd (HLA-B*58:01 [10]): 0.013 µM
- Kd (HLA-A*03:01 [2]; [13]): 0.039 µM
- Kd (HLA-A*30:01): ≥ 20 µM
- Kd (HLA-B*15:01; [13]): 0.228 µM
- Kd (HLA-B*15:17; [13]): 0.0041 µM
- Kd (HLA-B*35:01; [13]): 0.29 µM
- Kd (HLA-B*57:01; [13]): 0.257 µM
- Kd (HLA-A*32:01): 0.0957 µM

Sequence: KVLSHGWAY
- Kd (HLA-A*03:01 [2]; [15]): 0.429 µM
- Kd (HLA-B*35:01; [15]): 0.0267 µM

Sequence: NAMGADYYA
- Kd (HLA-A*02:01 [11]): ≥ 20 µM
- Kd (HLA-A*02:03): ≥ 20 µM
- Kd (HLA-A*02:16): ≥ 20 µM
- Kd (HLA-A*02:19): 0.0151 µM
- Kd (HLA-A*03:01 [2]; [16]): ≥ 20 µM
- Kd (HLA-A*23:01): ≥ 20 µM
- Kd (HLA-A*24:03): ≥ 20 µM
- Kd (HLA-A*26:01 [12]): ≥ 20 µM
- Kd (HLA-A*29:02): 0.869 µM
- Kd (HLA-B*15:01; [16]): ≥ 20 µM
- Kd (HLA-B*15:17; [16]): ≥ 20 µM
- Kd (HLA-B*18:01): ≥ 20 µM
- Kd (HLA-B*27:03): ≥ 20 µM
- Kd (HLA-B*39:01): ≥ 20 µM
- Kd (HLA-B*46:01): ≥ 20 µM
- Kd (HLA-B*51:01): ≥ 20 µM
- Kd (HLA-B*57:01; [16]): ≥ 20 µM
